The record followed here is patent US20050182242A1, “Global analysis of protein activities using proteome chips” (priority 2001, published 2005).

Data set [1] concerns the target T1, calmodulin (Homo sapiens, UniProt P0DP23).
T1 construct: purchased CalBiochem, USA
Nature of the data set: Yeast proteome chip probed with biotinylated calmodulin. It is filed as binding. Conditions: biotinylated calmodulin in the presence of calcium. From the text:
To test for protein-protein interactions, the yeast proteome was probed with calmodulin (11). Calmodulin is a highly conserved calcium-binding protein involved in many calcium-regulated cellular processes and has many known physical partners (Hook et al., 2001, Annu. Rev. Pharmacol. Toxicol. 41:471). The calmodulin probe was biotinylated, and bound probe was detected using Cy3-labeled streptavidin. As a control, the yeast proteome was probed with Cy3-labeled streptavidin alone.
Generally, protein-protein interactions can be assayed as follows. Blocked proteome chips are washed three to five times in PBS buffer, and the extra liquid on the glass surface is removed by tapping the slides vertically on a KIMWIPE™. 200 ∞l of biotinylated protein probe is added to the proteome chip and immediately covered by a hydrophobic plastic cover slip (GRACE BIO-LABS™, USA). After trapped air bubbles are removed, the chip is incubated in a humidity chamber at room temperature (RT) for one hour. To remove the cover slip, the chip is immersed into large volume of PBS buffer (>50 ml), and the slip should float away. The chip is then moved to a second PBS bath (>50 ml) and washed 3×5 min with shaking at RT. After removing extra liquid on the surface of the chip, at least 150 μl of Cy3- or Cy5-conjugated streptavidin (PIERCE™, USA; 1:2000 to 1:4000 dilution) is added to the surface and covered by a hydrophobic plastic cover slip (GRACE BIO-LABS™, USA). The chip is incubated for greater than 30 min in the dark at RT. The chip is then washed as described above. To completely remove the liquid on the chip, the chip is spun to dryness at 1500-2000 rpm for 5-10 min at RT.
• 1. S. Fields, Y. Kohara, D. J. Lockhart, Proc. Natl. Acad. Sci. 96, 8825 (1999); A. Goffeau et al., Science 274, 563 (1996). • 2 P. Ross-Macdonald et al., Nature 402, 413 (1999); J. L., DeRisi, V. R. Iyer, P. O. Brown, Science 278, 680 (1997); E. A. Winzeler et al., Science 285, 901 (1999). P. Uetz et al., Nature 403, 623 (2000); T. Ito et al., Proc. Natl. Acad. Sci. USA. 97, 1143 (2000) • 3 H. Zhu, M. Snyder, Curr. Opin. Chem. Biol. 5, 40 (2001). • 4 M. R. Martzen et al., Science 286, 1153 (1999). • 5 H. Zhu et al., Nat. Genet. 26, 283 (2000). • 6 G. MacBeath, S. L. Schreiber, Science 289, 1760 (2000). • 7 A. Caveman, J. Cell Sci. 113, 3543 (2000). • 8 P. Arenkov et al., Anal. Biochem 278, 123 (2000). • 9 D. A. Mitchell, T. K. Marshall, R. J. Deschenes, Yeast 9, 715 (1993). The expression vector pEGH was created by inserting an RGS-HisX6 epitope tag between the GST gene and the polycloning site of pEG(KG). The yeast ORFs were cloned using the strategy described previously (5), except every step was done in a 96-well format. Plasmid DNAs confirmed by DNA sequencing were reintroduced into both yeast (Y258) and E. coli (DH5a). […] 0.1 mM calcium was present in buffers in all subsequent steps. The chip was washed three times with PBS at RT. Cy3-conjugated streptavidin (Jackson IR, USA) (1:5000 dilution) was added to the chip and incubated for 30 min at RT. After extensive washing, the chip was spun dry and scanned using a microarray scanner; the data was subsequently acquired with the GENEPIX™ array densitometry software (Axon, USA). • 12 S. S. Hook, A. R. Means, Annu. Rev. […]

Data set [2] deals with phosphatidylcholine (PC) liposomes. Nature of the data set: Yeast proteome chip probed with PC liposomes. To be noted: liposome binding signal on yeast proteome chip, Cy3-streptavidin detection. In outline: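 Yeast proteome chips incubated 1 h at RT with sonicated liposomes of PC containing 1% (w/w) biotin-DHPE, plus 5% (w/w) of the indicated phosphoinositide where applicable. After PBS washes, bound liposomes detected with Cy3- or Cy5-streptavidin (>30 min, RT, dark) and fluorescence scanned.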

For data set [3], the system named is PI(3,4,5)P3 liposomes. Nature of the data set: Yeast proteome chip probed with PI(3,4,5)P3 liposomes. To be noted: liposome binding signal on yeast proteome chip, Cy3-streptavidin detection.
Data set [4] deals with phospholipids (phosphatidylinositols vs phosphatidylcholine). Nature of the data set: Proteome chip lipid-binding screen, overall analysis of six liposomes (PI/PC specificity). Conditions: phospholipid liposome probes. From the text: FIGS. 4A-4D. Analysis of the phosphatidylinositol-binding proteins. To determine the phosphatidylinositol (“PI”)-binding specificity of 150 positive proteins, their binding signals were normalized against the corresponding binding signals of phosphatidylcholine (“PC”). Based on the ratios (“PI/PC”), the proteins were grouped into four categories: (A) 30 strong and specific, (B) 43 strong and nonspecific, (C) 19 weak and specific, and (D) 58 weak and nonspecific phosphatidylinositol-binding proteins. The intensity represents the PI/PC signal ratio as shown by the scale in the figure. The column, labeled “10^n” to the right of the PI/PC binding ratios indicates the maximum binding signal intensity (open boxes) and its confidence interval (solid horizontal lines); the numbers indicate the log of the values. Boxes in the three columns to the right of the confidence interval column indicate membrane-associated proteins (“Membrane”), kinases (“Kinase”), and uncharacterized ORFs (“Unknown”), respectively.
To identify PI-binding proteins in yeast, liposomes were used as probes because the liposome provides the most relevant physiological condition to assay the interactors. Six types of liposomes were used. Each contains phosphatidylcholine (“PC”) with 1% (w/w) N-(biotinoyl)-1,2-dihexadecanoyl-sn-glycero-3-phosphoethanolamine, triethylammonium salt (biotin DHPE). The biotinylated lipid serves as a label that can be detected by Cy3-streptavidin (21). In addition to PC, the five other liposomes contain either 5% (w/w) PI(3)P, PI(4)P, PI(3,4)P2, PI(4,5)P2, or PI(3,4,5)P3 (FIG. 3A).
The protein-liposome interaction was assayed as follows. Appropriate amounts of each lipid in chloroform were mixed and dried under nitrogen. The lipid mixture was resuspended in TBS buffer by vortexing. The liposomes were created by sonication. Blocked proteome chips were washed three to five times in PBS buffer, and the extra liquid on the glass surface was removed by tapping the slides vertically on a KIMWIPE™. 200 μl of liposome solution was added to the proteome chip and immediately covered by a hydrophobic plastic cover slip (GRACE BIO-LAB™, USA). After trapped air bubbles were removed, the chip was incubated in a humidity chamber at RT for one hour. To remove the cover slip, the chip was immersed into large volume of PBS buffer (50 ml), so that the slip would float away. The chip was then moved to a second PBS bath (>50 ml) and washed 3×5 min with shaking at RT. After removing extra liquid on the surface of the chip, about 100 μl of Cy3 or Cy5 conjugated streptavidin (PIERCE™, USA; 1:2000 to 1:4000 dilution) was added to the surface and covered by a hydrophobic plastic cover slip (GRACE BIO-LABS™, USA). The chip was incubated for greater than 30 min in the dark at RT. The chip was then washed as described above. To completely remove the liquid on the chip, the chip was spun to dryness at 1500-2000 rpm for 5-10 min at RT.
An algorithm was devised to assist in the identification of positive signals (42). Fifty-two (35%) of the interactors (i.e., lipid-binding proteins) correspond to uncharacterized proteins thus ascribing the first biochemical activities to those proteins.
The interactors (i.e., phospholipid-binding proteins) were grouped in several ways (42). First, the interactors were sorted according to whether they bound lipids strongly or weakly, based on the phospholipid-binding signal relative to the amount of GST (FIG. 4). Slightly more (72%) of the strong lipid binding proteins (FIGS. 4A and 4B) were characterized relative to the weakly binding proteins (54%) (FIGS. 4C and 4D). Many of the strong lipid-binding proteins are membrane-associated, or are predicted to be associated with membranes, whereas fewer of the weaker binding proteins appear to be associated with membranes (FIG. 4, “Membrane” column). […] Moreover, thirteen of the seventeen protein kinases bind very strongly to the phospholipids. […]

In data set [5] the test system is PI(3)P liposomes. Nature of the data set: Yeast proteome chip probed with PI(3)P liposomes. To be noted: liposome binding signal on yeast proteome chip, Cy3-streptavidin detection.
Data set [6] has as its system PI(4,5)P2 liposomes. Nature of the data set: Yeast proteome chip probed with PI(4,5)P2 liposomes. Conditions: liposome binding signal on yeast proteome chip, Cy3-streptavidin detection.
The subject of data set [7] is PI(3,4)P2 liposomes. Nature of the data set: Yeast proteome chip probed with PI(3,4)P2 liposomes. Conditions: liposome binding signal on yeast proteome chip, Cy3-streptavidin detection.
Data set [8] relates to PI(4)P liposomes. Nature of the data set: Yeast proteome chip probed with PI(4)P liposomes. Conditions: liposome binding signal on yeast proteome chip, Cy3-streptavidin detection.

B1: Cmk2p: yeast calcium/calmodulin-dependent serine/threonine protein kinase (protein, UniProt P22517 1-447, looked up)
Calcium/calmodulin-dependent …: MPKESEVINSEFHVDVQDPERLNGHPVAKFINKLSGQPESYVNRTNYIFGRTLGAGSFGVVRQARKLSTNEDVAIKILLKKALQGNNVQLQMLYEELSILQKLSHPNIVSFKDWFESKDKFYIVTQLATGGELFDRILSRGKFTEVDAVEIIVQILGAVEYMHSKNVVHRDLKPENVLYVDKSENSPLVIADFGIAKQLKGEEDLIYKAAGSLGYVAPEVLTQDGHGKPCDIWSIGVITYTLLCGYSPFIAESVEGFMEECTASRYPVTFHMPYWDNISIDVKRFILKALRLNPADRPTATELLDDPWITSKRVETSNILPDVKKGFSLRKKLRDAIEIVKLNNRIKRLRNMYSLGDDGDNDIEENSLNESLLDGVTHSLDDLRLQSQKKGGELTEEQMKLKSALTKDAFVQIVKAATKNKHKVLAGEEEDDSKKTLHDDRESKSED
With B1, the calmodulin binding result in data set [1] was “identified”.

B2: Cmp2p: one of the two yeast calcineurins (protein)
chain: MSSDAIRNTEQINAAIKIIENKTERPQSSTTPIDSKASTVAAANSTATETSRDLTQYTLDDGRVVSTNRRIMNKVPAITSHVPTDEELFQPNGIPRHEFLRDHFKREGKLSAAQAARIVTLATELFSKEPNLISVPAPITVCGDIHGQYFDLLKLFEVGGDPATTSYLFLGDYVDRGSFSFECLIYLYSLKLNFNDHFWLLRGNHECKHLTSYFTFKNEMLHKYNLDIYEKCCESFNNLPLAALMNGQYLCVHGGISPELNSLQDINNLNRFREIPSHGLMCDLLWADPIEEYDEVLDKDLTEEDIVNSKTMVPHHGKMAPSRDMFVPNSVRGCSYAFTYRAACHFLQETGLLSIIRAHEAQDAGYRMYKNTKTLGFPSLLTLFSAPNYLDTYNNKAAILKYENNVMNIRQFNMTPHPYWLPDFMDVFTWSLPFVGEKVTEMLVAILNICTEDELENDTPVIEELVGTDKKLPQAGKSEATPQPATSASPKHASILDDEHRRKALRNKILAVAKVSRMYSVLREETNKVQFLKDHNSGVLPRGALSNGVKGLDEALSTFERARKHDLINEKLPPSLDELKNENKKYYEKVWQKVHEHDAKNDSK
modifications: left off: a dimerising Fc or GST
notes: one of the two yeast calcineurins
Consider B2, for which the calmodulin binding entry in data set [1] was “identified”.

B3: SNF1: yeast protein kinase, regulator of glucose metabolism, GST-HisX6 fusion (protein, UniProt P06782 1-633, looked up)
Carbon …: MSSNNNTNTAPANANSSHHHHHHHHHHHHHGHGGSNSTLNNPKSSLADGAHIGNYQIVKTLGEGSFGKVKLAYHTTTGQKVALKIINKKVLAKSDMQGRIEREISYLRLLRHPHIIKLYDVIKSKDEIIMVIEYAGNELFDYIVQRDKMSEQEARRFFQQIISAVEYCHRHKIVHRDLKPENLLLDEHLNVKIADFGLSNIMTDGNFLKTSCGSPNYAAPEVISGKLYAGPEVDVWSCGVILYVMLCRRLPFDDESIPVLFKNISNGVYTLPKFLSPGAAGLIKRMLIVNPLNRISIHEIMQDDWFKVDLPEYLLPPDLKPHPEEENENNDSKKDGSSPDNDEIDDNLVNILSSTMGYEKDEIYESLESSEDTPAFNEIRDAYMLIKENKSLIKDMKANKSVSDELDTFLSQSPPTFQQQSKSHQKSQVDHETAKQHARRMASAITQQRTYHQSPFMDQYKEEDSTVSILPTSLPQIHRANMLAQGSPAASKISPLVTKKSKTRWHFGIRSRSYPLDVMGEIYIALKNLGAEWAKPSEEDLWTIKLRWKYDIGNKTNTNEKIPDLMKMVIQLFQIETNNYLVDFKFDGWESSYGDDTTVSNISEDEMSTFSAYPFLHLTTKLIMELAVNSQSN
B3: the PC in data set [2] is given as 1774.37. For the same molecule, the “PI(3, 4, 5)P3” value in data set [3] was found to be 560.70. In addition, the “identified as lipid-binding interactor” value in data set [4] is recorded as “identified”. Further, the “PI(3)P” value in data set [5] is 202.00. The “PI(4, 5)P2” value in data set [6] is on record as 423.73. In addition, in data set [7], the “PI(3, 4)P2” value was 298.26. Also, the “PI(4)P” value in data set [8] was 1795.06.
